According to patent US20220119531A1 (I MAB BIOPHARMA US, published 2022):
Positions count from the first letter of the chain named. Numbers in names are those of the source. Blank lines part the entries; values can stand above or below the binder they belong to.

Experiments:
[1] = biological target: T1, human PD-L1 expressed on mammalian cells (human, UniProt Q9NZQ7 19-290); test: FACS on PD-L1 Raji cells by the text; the axis unit is printed only as 'ng', no volume
T1 construct: whole, on cells; The cell line (CHOK1 or Raji) is named under assay in each row; also called PDL1-CHOK1 cells; PD-L1 Raji cells
Method: Briefly, PD-L1 Raji cells were first incubated with 5-fold serially diluted humanized antibodies starting at 2 μg/ml at RT for 1 hour. After wash by FACS buffer (PBS with 2% FBS), the Alexa 488-anti-human IgG antibody was added to each well and incubated at RT for 1 hour. The MFI of Alexa 488 were evaluated by FACSAriaIII.

[2] = biological target: T2, PD-L1 K162 alanine-scan mutant (human, UniProt Q9NZQ7 19-290, limits assumed); test: alanine-scan library, high-throughput flow cytometry; threshold for critical clones
T2 construct: Read by flow cytometry
Source text: (§1) An alanine-scan library of PD-L1 was constructed. Briefly, 217 mutant clones of PD-L1 were generated on Integral Molecular's protein engineering platform. […] For each PD-L1 variant, the mean binding value was plotted as a function of expression (control anti-PD-L1 mAb reactivity).

[3] = biological target: T3, PD-L1 Y134 alanine-scan mutant (human, UniProt Q9NZQ7 19-290, limits assumed); test: as above
T3 construct: Read by flow cytometry
Source text: as §1

PD-L1 N183A clone = biological target: T4, PD-L1 N183A clone (human, UniProt Q9NZQ7 19-290, limits assumed); test: as above
T4 construct: Read by flow cytometry
Source text: as §1

T1 sequence (Q9NZQ7 19-290): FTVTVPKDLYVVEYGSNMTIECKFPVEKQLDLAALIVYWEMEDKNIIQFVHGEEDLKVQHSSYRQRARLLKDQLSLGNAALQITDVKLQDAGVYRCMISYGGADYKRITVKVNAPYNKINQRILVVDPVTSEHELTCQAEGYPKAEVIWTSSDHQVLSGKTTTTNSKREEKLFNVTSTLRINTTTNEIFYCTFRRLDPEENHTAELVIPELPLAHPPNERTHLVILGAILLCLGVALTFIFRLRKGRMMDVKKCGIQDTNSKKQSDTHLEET
T3 sequence (Q9NZQ7 other isoform, or with tags, fused parts or gaps mutant limits assumed): as the sequence (Q9NZQ7 19-290) above, with Y116A counted along it
T2 sequence (Q9NZQ7 other isoform, or with tags, fused parts or gaps mutant limits assumed): as the sequence (Q9NZQ7 19-290) above, with K144A counted along it
T4 sequence (Q9NZQ7 19-290 N183A limits assumed): as the sequence (Q9NZQ7 19-290) above, with N165A counted along it

EC50 (read off the curve) [1]: ~0.5 ng
B1: Hu1210-41 (antibody, V domains shown)
VH: EVQLVESGGGLVQPGGSLRLSCAASGFTFSSYDMSWVRQAPGKSLEWVATISDAGGYIYYSDSVKGRFTISRDNAKNSLYLQMNSLRDEDTAVYICAREFGKRYALDYWGQGTTVTVSS
VL: DIQMTQSPSSLSASVGDRVTITCKASQDVTPAVAWYQQKPGKAPKLLIYSTSSRYTGVPSRFSGSGSGTDFTFTISSLQPEDIATYYCQQHYTTPLTFGQGTKLEIK
notes: Humanized; also called Hu1210-41 antibody; parental antibody Hu1210-41

EC50 (read off the curve) [1]: ~0.4 ng
B2: WT (S60R mutant of Hu1210-41) (antibody, V domains shown)
VH: B1 VH with S61R
VL: B1 VL
notes: Differs from Hu1210-41 by S60R (Kabat) in the heavy chain; Detected with anti-human IgG; also called S6OR (CDRH2) mutant; parental antibody WT

% WT reactivity [2]: < 30 % of WT
% WT reactivity [3]: < 30 % of WT
% WT reactivity (PD-L1 N183A clone): < 30 % of WT
B3: Hu1210-41 Fab (Fab, V domains shown)
VH: B1 VH
VL: B1 VL
